Measurements reported in PMC3402478, “ADP Ribosylation by PARP-1 Suppresses HOXB7 Transcriptional Activity”.

Key:
GST-HOXB7 = GST-HOXB7 (UniProt P09629 1-217); test: EMSA; no PARP-1; competed by 100-fold unlabeled probe; EMSA: 50 mM Tris-HCl pH 7.5, 50 mM NaCl, 1 mM MgCl2, 0.5 mM DTT, 4% glycerol, 0.5 mM EDTA, 0.25 mg/ml poly(dI-dC), 20 min, gel at room temperature; ONP: 60 mM KCl, 12 mM HEPES pH 7.9, 4 mM Tris-HCl, 5% glycerol, 0.5 mM EDTA, 1 mM DTT, 4 C, 3 h; settings: protein: recombinant; tags: GST; label: 32P; blunt
GST-HOXB7, sequence (P09629 whole entry): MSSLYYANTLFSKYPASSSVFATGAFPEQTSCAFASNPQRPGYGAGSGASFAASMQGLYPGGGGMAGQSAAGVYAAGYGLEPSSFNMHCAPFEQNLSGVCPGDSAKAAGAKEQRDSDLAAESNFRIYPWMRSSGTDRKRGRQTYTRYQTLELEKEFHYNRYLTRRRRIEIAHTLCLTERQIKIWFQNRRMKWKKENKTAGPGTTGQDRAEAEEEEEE

[1] = target: PARP-1 (purified, Trevigen) (UniProt P09874 1-1014); test: EMSA; EMSA: 50 mM Tris-HCl pH 7.5, 50 mM NaCl, 1 mM MgCl2, 0.5 mM DTT, 4% glycerol, 0.5 mM EDTA, 0.25 mg/ml poly(dI-dC), 20 min, gel at room temperature; ONP: 60 mM KCl, 12 mM HEPES pH 7.9, 4 mM Tris-HCl, 5% glycerol, 0.5 mM EDTA, 1 mM DTT, 4 C, 3 h; settings: protein: commercial; label: 32P; blunt
PARP-1 (purified, Trevigen), sequence (P09874 whole entry): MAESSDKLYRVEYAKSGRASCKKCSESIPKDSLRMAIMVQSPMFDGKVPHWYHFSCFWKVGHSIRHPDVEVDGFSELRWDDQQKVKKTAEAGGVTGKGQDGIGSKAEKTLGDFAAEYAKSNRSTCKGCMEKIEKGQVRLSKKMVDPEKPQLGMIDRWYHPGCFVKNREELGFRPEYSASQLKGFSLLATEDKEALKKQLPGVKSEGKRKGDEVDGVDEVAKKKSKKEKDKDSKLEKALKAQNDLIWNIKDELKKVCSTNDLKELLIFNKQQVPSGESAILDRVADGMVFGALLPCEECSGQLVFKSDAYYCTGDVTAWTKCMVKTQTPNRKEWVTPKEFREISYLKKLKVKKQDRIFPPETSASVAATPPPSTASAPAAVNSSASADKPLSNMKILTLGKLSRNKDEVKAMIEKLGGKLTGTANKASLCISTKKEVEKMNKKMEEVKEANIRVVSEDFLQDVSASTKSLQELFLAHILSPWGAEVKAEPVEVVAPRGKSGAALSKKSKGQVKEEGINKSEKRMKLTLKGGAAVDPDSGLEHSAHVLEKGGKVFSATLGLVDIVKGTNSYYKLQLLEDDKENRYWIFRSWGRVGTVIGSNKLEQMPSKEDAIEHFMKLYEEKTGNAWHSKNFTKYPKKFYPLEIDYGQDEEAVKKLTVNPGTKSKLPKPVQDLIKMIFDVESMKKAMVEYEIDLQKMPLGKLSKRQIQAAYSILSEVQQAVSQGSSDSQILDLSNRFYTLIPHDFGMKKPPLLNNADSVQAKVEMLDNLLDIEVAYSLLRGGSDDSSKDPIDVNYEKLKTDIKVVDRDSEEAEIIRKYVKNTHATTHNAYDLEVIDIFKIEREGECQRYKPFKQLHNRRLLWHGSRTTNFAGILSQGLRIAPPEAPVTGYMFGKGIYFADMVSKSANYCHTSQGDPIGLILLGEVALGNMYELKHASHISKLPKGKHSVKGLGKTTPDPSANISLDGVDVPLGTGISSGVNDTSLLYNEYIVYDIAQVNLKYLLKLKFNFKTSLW

B1: HBS EMSA probe (dsDNA)
DNA 1: AAATATCAATTAAATCTTAATTATAA
DNA 2: TTATAATTAAGATTTAATTGATATTT
binding result (GST-HOXB7): binds | binding result [1]: no binding
